Data published in doi:10.1101/2024.04.29.591313, “Discovery of a synthetic small molecule targeting the central regulator of Salmonella pathogenicity” (bioRxiv, 2024).

Biological target: the molecule itself
Test: SEC-MALS; Superdex 75 Increase 10/300 GL; HilD (100 μM) incubated with 1% (v/v) DMSO or C26 (100 µM) for 20 min at room temperature; SEC buffer (50 mM NaH2PO4, pH 7.0, 200 mM NaCl); 0.5 ml/min

B1: HilD (natural protein)
chain: MENVTFVSNSHQRPAADNLQKLKSLLTNTRQQIKSQTQQVTIKNLYVSSFTLVCFRSGKLTISNNHDTIYCDEPGMLVLKKEQVVNVTLEEVNGHMDFDILEIPTQRLGALYALIPNEQQTKMAVPTEKAQKIFYTPDFPARREVFEHLKTAFSCTKDTSKGCSNCNNKSCIENEELIPYFLLFLLTAFLRLPESYEIILSSAQITLKERVYNIISSSPSRQWKLTDVADHIFMSTSTLKRKLAEEGTSFSDIYLSARMNQAAKLLRIGNHNVNAVALKCGYDSTSYFIQCFKKYFKTTPSTFIKMANH
notes: HilD, transcriptional regulator of Salmonella enterica serovar Typhimurium; the hilD gene was cloned into pET-24a(+) with an N-terminal His6-SUMO fusion; Dimer by SEC-MALS; 9 (printed only as an image); also called HilDWT; recombinant HilD; source: E. coli C41(DE3), purified (Ni-NTA, SUMO protease cleavage, second Ni-NTA, SEC Superdex 75); not shown: His6, N-terminal, cleaved; SUMO, N-terminal, …
- stoichiometry N: 2
